The results in this text go back to publication doi:10.1101/655282.

Where no end group is shown, it is not given here. [ ]: non-standard residue; d: D form. pS = N[C@@H](COP(=O)(O)O)C(=O)O

For this assay, the target named is SUMO1 (UniProt P63165).
Sequence of UniProt P63165 (P63165 1-97): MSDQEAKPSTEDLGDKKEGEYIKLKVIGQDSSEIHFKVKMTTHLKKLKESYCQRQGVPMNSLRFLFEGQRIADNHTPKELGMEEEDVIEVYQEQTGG

B1: IE2 N-Terminal Domain (IE2-NTD), FITC labelled (peptide)
peptide: PLIKQEDIKPEPDFTIQYRNKIIDTAGCIVISDSEEEQG
modifications: also: FITC label, site not given here
Consider B1, for which the rate of increase in anisotropy, real-time SUMOylation assay with SUMO1 was 0.00012 min⁻¹.

B2: phosphorylated IE2-NTD (IE2-ppNTD) (peptide)
peptide: PLIKQEDIKPEPDFTIQYRNKIIDTAGCIVI[pS]D[pS]EEEQG
modifications: also: FITC label, site not given here
The molecule B2 yielded a rate of increase in anisotropy, real-time SUMOylation assay with SUMO1 of 0.00021 min⁻¹.
